In doi:10.1101/2022.05.07.491039 (bioRxiv, 2022):

T1: αE-catenin R551A (mouse, UniProt P26231 1-906, R551A)
T1 sequence: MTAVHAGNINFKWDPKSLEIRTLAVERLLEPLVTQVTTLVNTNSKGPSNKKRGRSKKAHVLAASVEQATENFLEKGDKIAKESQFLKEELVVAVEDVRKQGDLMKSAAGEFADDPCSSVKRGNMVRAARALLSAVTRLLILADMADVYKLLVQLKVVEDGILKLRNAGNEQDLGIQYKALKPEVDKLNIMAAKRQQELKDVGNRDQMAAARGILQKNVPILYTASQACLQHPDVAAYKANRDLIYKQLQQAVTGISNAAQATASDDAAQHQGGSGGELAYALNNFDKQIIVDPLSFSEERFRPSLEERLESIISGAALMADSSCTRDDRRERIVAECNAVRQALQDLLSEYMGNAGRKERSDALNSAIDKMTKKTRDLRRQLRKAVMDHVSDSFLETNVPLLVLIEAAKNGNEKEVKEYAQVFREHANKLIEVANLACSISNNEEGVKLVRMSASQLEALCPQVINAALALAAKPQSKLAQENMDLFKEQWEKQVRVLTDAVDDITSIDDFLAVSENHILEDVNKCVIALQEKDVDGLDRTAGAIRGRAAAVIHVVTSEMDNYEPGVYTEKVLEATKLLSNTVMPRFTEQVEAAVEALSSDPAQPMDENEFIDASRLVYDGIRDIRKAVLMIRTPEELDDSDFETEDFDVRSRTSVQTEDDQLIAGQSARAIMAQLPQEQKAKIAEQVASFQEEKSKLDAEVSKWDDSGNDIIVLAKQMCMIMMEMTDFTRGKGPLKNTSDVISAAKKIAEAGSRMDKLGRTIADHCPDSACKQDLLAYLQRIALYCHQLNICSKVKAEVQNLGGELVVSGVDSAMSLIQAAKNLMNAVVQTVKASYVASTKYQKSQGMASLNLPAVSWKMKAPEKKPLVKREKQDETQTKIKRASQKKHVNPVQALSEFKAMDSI

T2: full-length murine αE-catenin (mouse, UniProt P26231 1-906)
T2 sequence: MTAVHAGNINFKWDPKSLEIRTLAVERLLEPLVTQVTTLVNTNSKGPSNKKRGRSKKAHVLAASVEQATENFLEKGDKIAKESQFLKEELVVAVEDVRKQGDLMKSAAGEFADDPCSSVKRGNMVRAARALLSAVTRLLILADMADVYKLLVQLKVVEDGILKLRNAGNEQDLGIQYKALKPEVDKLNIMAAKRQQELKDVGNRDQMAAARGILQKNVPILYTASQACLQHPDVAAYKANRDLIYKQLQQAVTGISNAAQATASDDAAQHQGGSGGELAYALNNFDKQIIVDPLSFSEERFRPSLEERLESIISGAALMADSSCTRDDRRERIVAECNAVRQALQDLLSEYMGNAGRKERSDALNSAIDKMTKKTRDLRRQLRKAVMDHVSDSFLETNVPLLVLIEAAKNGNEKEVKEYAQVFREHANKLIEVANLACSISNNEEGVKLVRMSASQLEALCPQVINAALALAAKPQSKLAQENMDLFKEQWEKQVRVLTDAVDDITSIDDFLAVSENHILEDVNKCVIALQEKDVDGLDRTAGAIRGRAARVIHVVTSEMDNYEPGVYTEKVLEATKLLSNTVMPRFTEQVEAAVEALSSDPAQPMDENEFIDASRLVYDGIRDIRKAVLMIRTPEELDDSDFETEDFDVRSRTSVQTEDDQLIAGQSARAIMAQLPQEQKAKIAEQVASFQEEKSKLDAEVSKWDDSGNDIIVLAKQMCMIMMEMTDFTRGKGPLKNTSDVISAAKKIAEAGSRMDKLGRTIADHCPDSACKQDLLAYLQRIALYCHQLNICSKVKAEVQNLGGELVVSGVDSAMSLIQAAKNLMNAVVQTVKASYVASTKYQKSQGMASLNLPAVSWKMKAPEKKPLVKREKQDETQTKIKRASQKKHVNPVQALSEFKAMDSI

B1: β-catenin (natural protein)
chain: MATQADLMELDMAMEPDRKAAVSHWQQQSYLDSGIHSGATTTAPSLSGKGNPEEEDVDTSQVLYEWEQGFSQSFTQEQVADIDGQYAMTRAQRVRAAMFPETLDEGMQIPSTQFDAAHPTNVQRLAEPSQMLKHAVVNLINYQDDAELATRAIPELTKLLNDEDQVVVNKAAVMVHQLSKKEASRHAIMRSPQMVSAIVRTMQNTNDVETARCTAGTLHNLSHHREGLLAIFKSGGIPALVKMLGSPVDSVLFYAITTLHNLLLHQEGAKMAVRLAGGLQKMVALLNKTNVKFLAITTDCLQILAYGNQESKLIILASGGPQALVNIMRTYTYEKLLWTTSRVLKVLSVCSSNKPAIVEAGGMQALGLHLTDPSQRLVQNCLWTLRNLSDAATKQEGMEGLLGTLVQLLGSDDINVVTCAAGILSNLTCNNYKNKMMVCQVGGIEALVRTVLRAGDREDITEPAICALRHLTSRHQEAEMAQNAVRLHYGLPVVVKLLHPPSHWPLIKATVGLIRNLALCPANHAPLREQGAIPRLVQLLVRAHQDTQRRTSMGGTQQQFVEGVRMEEIVEGCTGALHILARDVHNRIVIRGLNTIPLFVQLLYSPIENIQRVAAGVLCELAQDKEAAEAIEAEGATAPLTELLHSRNEGVATYAAAVLFRMSEDKPQDYKKRLSVELTSSLFRTEPMAWNETADLGLDIGAQGEALGYRQDDPSYRSFHSGGYGQDALGMDPMMEHEMGGHHPGADYPVDGLPDLGHAQDLMDGLPPGDSNQLAWFDTDL

Key:
Experiment in all cases: SEC
[1] = biological target: T1, αE-catenin R551A
[2] = biological target: B1
[3] = biological target: T2, full-length murine αE-catenin

Row | binding result [1] | binding result [2] | binding result [3] | Binder
1 | binds |  |  | chicken vinculin D1 domain (aa 1-259) (domain or fragment) MPVFHTRTIESILEPVAQQISHLVIMHEEGEVDGKAIPDLTAPVSAVQAAVSNLVRVGKETVQTTEDQILKRDMPPAFIKVENACTKLVRAAQMLQADPYSVPARDYLIDGSRGILSGTSDLLLTFDEAEVRKIIRVCKGILEYLTVAEVVETMEDLVTYTKNLGPGMTKMAKMIDERQQELTHQEHRVMLVNSMNTVKELLPVLISAMKIFVTTKNTKSQGIEEALKNRNFTVEKMSAEINEIIRVLQLTSWDEDAWA
2 |  | binds |  | Mouse E-cadherin cytoplasmic domain (domain or fragment) not shown
3 | binds |  | binds | B1
4 |  |  | binds | β-catenin 78-671 (domain or fragment) QVADIDGQYAMTRAQRVRAAMFPETLDEGMQIPSTQFDAAHPTNVQRLAEPSQMLKHAVVNLINYQDDAELATRAIPELTKLLNDEDQVVVNKAAVMVHQLSKKEASRHAIMRSPQMVSAIVRTMQNTNDVETARCTAGTLHNLSHHREGLLAIFKSGGIPALVKMLGSPVDSVLFYAITTLHNLLLHQEGAKMAVRLAGGLQKMVALLNKTNVKFLAITTDCLQILAYGNQESKLIILASGGPQALVNIMRTYTYEKLLWTTSRVLKVLSVCSSNKPAIVEAGGMQALGLHLTDPSQRLVQNCLWTLRNLSDAATKQEGMEGLLGTLVQLLGSDDINVVTCAAGILSNLTCNNYKNKMMVCQVGGIEALVRTVLRAGDREDITEPAICALRHLTSRHQEAEMAQNAVRLHYGLPVVVKLLHPPSHWPLIKATVGLIRNLALCPANHAPLREQGAIPRLVQLLVRAHQDTQRRTSMGGTQQQFVEGVRMEEIVEGCTGALHILARDVHNRIVIRGLNTIPLFVQLLYSPIENIQRVAAGVLCELAQDKEAAEAIEAEGATAPLTELLHSRNEGVATYAAAVLFRMSEDKPQDYK
